Source: patent US20100043097

Chain of GST-BRK1 (chain, as listed by the source): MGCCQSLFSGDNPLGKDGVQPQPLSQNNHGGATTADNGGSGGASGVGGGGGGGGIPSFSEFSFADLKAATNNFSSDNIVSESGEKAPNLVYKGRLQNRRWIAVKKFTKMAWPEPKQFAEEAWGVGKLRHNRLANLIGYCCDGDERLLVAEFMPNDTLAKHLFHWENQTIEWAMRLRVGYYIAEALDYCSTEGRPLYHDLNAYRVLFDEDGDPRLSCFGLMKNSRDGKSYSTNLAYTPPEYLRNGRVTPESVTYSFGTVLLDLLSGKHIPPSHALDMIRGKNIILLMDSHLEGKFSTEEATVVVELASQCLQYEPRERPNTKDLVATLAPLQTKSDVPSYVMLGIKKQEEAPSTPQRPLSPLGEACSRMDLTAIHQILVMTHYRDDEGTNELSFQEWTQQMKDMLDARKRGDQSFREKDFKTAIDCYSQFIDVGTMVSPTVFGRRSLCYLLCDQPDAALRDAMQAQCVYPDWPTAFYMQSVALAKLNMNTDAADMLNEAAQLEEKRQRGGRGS

B1: GST-BRI1-KD (protein)
chain: REMRKRRRKKEAELEMYAEGHGNSGDRTANNTNWKLTGVKEALSINLAAFEKPLRKLTFADLLQATNGFHNDSLIGSGGFGDVYKAILKDGSAVAIKKLIHVSGQGDREFMAEMETIGKIKHRNLVPLLGYCKVGDERLLVYEFMKYGSLEDVLHDPKKAGVKLNWSTRRKIAIGSARGLAFLHHNCSPHIIHRDMKSSNVLLDENLEARVSDFGMARLMSAMDTHLSVSTLAGTPGYVPPEYYQSFRCSTKGDVYSYGVVLLELLTGKRPTDSPDFGDNNLVGWVKQHAKLRISDVFDPELMKEDPALEIELLQHLKVAVACLDDRAWRRPTMVQVMAMFKEIQAGSGIDSQSTIRSIEDGGFSTIEMVDMSIKEVPEGKL
in vitro kinase assay (32P autoradiography), reduction of phosphorylation (GST tagged BRK1-S230A): a S230A mutation reduced the phosphorylation by 82%
mass spectrometry of BRI1-phosphorylated BRK1 (GST-BRK1): identified serine 230 of BRK1 as a BRI1 phosphorylation site
